Test results from patent US20190241648A1 (STATEN BIOTECHNOLOGY B V, published 2019).
Ends that are not written are not given here.

How the values were obtained:
Test in all cases: peptide microarray
[1] = target: ApoC3 peptide … E63A (human, cyclic constrained)
Procedure: (§1) F64 was completely variable.
(§2) Pre: staining of one of the ApoC3 peptide microarrays was done with the secondary antibody goat anti-human IgG (Fe) DyLight680 (1:5000) and control antibody mouse monoclonal anti-HA (12CA5) DyLight800 (1:2000) to investigate background interactions of the secondary antibody with the antigen-derived peptides that could interfere with the main assays. Subsequent incubation of other ApoC3 peptide microarrays with antibody samples was followed by staining with secondary and control antibodies as well as read-out at scanning intensities of 7/7 (red/green). The additional HA peptides framing the peptide arrays were stained as internal quality control to confirm the assay quality and the peptide microarray integrity.

[2] = target: T1, ApoC3 peptide … D66A (human, not fully specified (bridges); also: cyclic constrained)
T1 peptide: DKFSEFWALDPEV
Procedure: as §1, §2

[3] = target: ApoC3 peptide … V71A (human, cyclic constrained)
Procedure: as §1, §2

[4] = target: T2, ApoC3 peptide … D68C (human, not fully specified (bridges); also: cyclic constrained)
T2 peptide: DKFSEFWDLCPEV
Procedure: as §1, §2

[5] = target: T3, ApoC3 peptide … P69C (human, not fully specified (bridges); also: cyclic constrained)
T3 peptide: DKFSEFWDLDCEV
Procedure: as §1, §2

[6] = target: ApoC3 peptide … E70C (human, cyclic constrained)
Procedure: as §1, §2

[7] = target: T4, ApoC3 peptide … F64D (human, not fully specified (bridges); also: cyclic constrained)
T4 peptide: DKFSEDWDLDPEV
Procedure: as §1, §2

[8] = target: ApoC3 peptide … W65D (human, cyclic constrained)
Procedure: as §1, §2

[9] = target: T5, ApoC3 peptide … L67D (human, not fully specified (bridges); also: cyclic constrained)
T5 peptide: DKFSEFWDDDPEV
Procedure: as §1, §2

[10] = target: T6, ApoC3 peptide … P69D (human, not fully specified (bridges); also: cyclic constrained)
T6 peptide: DKFSEFWDLDDEV
Procedure: as §1, §2

[11] = target: ApoC3 peptide … E70D (human, cyclic constrained)
Procedure: as §1, §2

[12] = target: T7, ApoC3 peptide … F61G (human, cyclic constrained)
T7 peptide: DKGSEFWDLDPEV
Procedure: as §1, §2

[13] = target: T8, ApoC3 peptide … D66G (human, not fully specified (bridges); also: cyclic constrained)
T8 peptide: DKFSEFWGLDPEV
Procedure: as §1, §2

[14] = target: ApoC3 peptide … V71G (human, cyclic constrained)
Procedure: as §1, §2

[15] = target: T9, ApoC3 peptide … K60H (human, not fully specified (bridges); also: cyclic constrained)
T9 peptide: DHFSEFWDLDPEV
Procedure: as §1, §2

[16] = target: ApoC3 peptide … S62I (human, cyclic constrained)
Procedure: as §1, §2

[17] = target: ApoC3 peptide … E63I (human, cyclic constrained)
Procedure: as §1, §2

[18] = target: T10, ApoC3 peptide … F64K (human, not fully specified (bridges); also: cyclic constrained)
T10 peptide: DKFSEKWDLDPEV
Procedure: as §1, §2

[19] = target: ApoC3 peptide … E63L (human, cyclic constrained)
Procedure: as §1, §2

[20] = target: ApoC3 peptide … S62M (human, cyclic constrained)
Procedure: as §1, §2

[21] = target: T11, ApoC3 peptide … W65M (human, not fully specified (bridges); also: cyclic constrained, ring type and places not given here)
T11 peptide: DKFSEFMDLDPEV
Procedure: as §1, §2

[22] = target: T12, ApoC3 peptide … L67M (human, not fully specified (bridges); also: cyclic constrained)
T12 peptide: DKFSEFWDMDPEV
Procedure: as §1, §2

[23] = target: T13, ApoC3 peptide … F61N (human, not fully specified (bridges); also: cyclic constrained)
T13 peptide: DKNSEFWDLDPEV
Procedure: as §1, §2

[24] = target: ApoC3 peptide … S62N (human, cyclic constrained)
Procedure: as §1, §2

[25] = target: ApoC3 peptide … V71P (human, cyclic constrained)
Procedure: as §1, §2

[26] = target: ApoC3 peptide … V71R (human, cyclic constrained)
Procedure: as §1, §2

[27] = target: T14, ApoC3 peptide … D59S (human, cyclic constrained)
T14 peptide: SKFSEFWDLDPEV
Procedure: as §1, §2

[28] = target: ApoC3 peptide … E63S (human, cyclic constrained)
Procedure: as §1, §2

[29] = target: T15, ApoC3 peptide … L67S (human, not fully specified (bridges); also: cyclic constrained)
T15 peptide: DKFSEFWDSDPEV
Procedure: as §1, §2

[30] = target: T16, ApoC3 peptide … K60T (human, not fully specified (bridges); also: cyclic constrained)
T16 peptide: DTFSEFWDLDPEV
Procedure: as §1, §2

[31] = target: ApoC3 peptide … D68T (human, cyclic constrained)
Procedure: as §1, §2

[32] = target: ApoC3 peptide … P69T (human, cyclic constrained)
Procedure: as §1, §2

[33] = target: T17, ApoC3 peptide … F61V (human, not fully specified (bridges); also: cyclic constrained)
T17 peptide: DKVSEFWDLDPEV
Procedure: as §1, §2

[34] = target: ApoC3 peptide … S62V (human, cyclic constrained)
Procedure: as §1, §2

[35] = target: ApoC3 peptide … V71W (human, cyclic constrained)
Procedure: as §1, §2

[36] = target: T18, ApoC3 peptide … K60Y (human, not fully specified (bridges); also: cyclic constrained)
T18 peptide: DYFSEFWDLDPEV
Procedure: as §1, §2

[37] = target: ApoC3 peptide … S62Y (human, cyclic constrained)
Procedure: as §1, §2

[38] = target: ApoC3 peptide … P69Y (human, cyclic constrained)
Procedure: as §1, §2

[39] = target: ApoC3 peptide … V71Y (human, cyclic constrained)
Procedure: as §1, §2

B1: anti-ApoC3 antibody 6A6 (antibody, V domains shown)
VH: EVQLVESGGGLVQPGGSLRLSCAASGFTFSSYAGRWVRQVPGKGLEWVSSINAGGGSTSYADSVKGRFTISRDNAKNTLYLQMNSLKPEDTAKYYCTQNSYRYWGQGTRVAVSS
VL: DVVLTQTPGSLSVVPGESASISCKASQSLIHTDGKTYLYWLLQKPGQRPQLLIYQVSSHESGVPDRFTGSGSGTDFTLKISGVKAEDAGVYYCAQATYNPRTFGQGTKLEIK
notes: it was detected with goat anti-human IgG (Fc); also called mAb 6A6; llama antibody 6A6
For B1, the “% of binding to wild-type peptide” value [1] was 36.7%, the “% of binding to wild-type peptide” value [2] was 0% and the “% of binding to wild-type peptide” value [3] was 85.2%. For the same binder, the “% of binding to wild-type peptide” value [4] was 5.29%, the “% of binding to wild-type peptide” value [5] was 28.9% and the “% of binding to wild-type peptide” value [6] was 0%. The “% of binding to wild-type peptide” value [7] was 220%, the “% of binding to wild-type peptide” value [8] was 130% and the “% of binding to wild-type peptide” value [9] was 2.89%. The “% of binding to wild-type peptide” value [10] was 98.5%, the “% of binding to wild-type peptide” value [11] was 13.8% and the “% of binding to wild-type peptide” value [12] was 25.9%. For the same binder, the “% of binding to wild-type peptide” value [13] was 0%, the “% of binding to wild-type peptide” value [14] was 109% and the “% of binding to wild-type peptide” value [15] was 124%. The “% of binding to wild-type peptide” value [16] was 129%, the “% of binding to wild-type peptide” value [17] was 8.76% and the “% of binding to wild-type peptide” value [18] was 107%. For the same binder, the “% of binding to wild-type peptide” value [19] was 10.1%, the “% of binding to wild-type peptide” value [20] was 63.5% and the “% of binding to wild-type peptide” value [21] was 19.1%. The “% of binding to wild-type peptide” value [22] was 43.4%, the “% of binding to wild-type peptide” value [23] was 48.3% and the “% of binding to wild-type peptide” value [24] was 126%. For the same binder, the “% of binding to wild-type peptide” value [25] was 110%, the “% of binding to wild-type peptide” value [26] was 47.5% and the “% of binding to wild-type peptide” value [27] was 87.5%. The “% of binding to wild-type peptide” value [28] was 35.2%, the “% of binding to wild-type peptide” value [29] was 26.5% and the “% of binding to wild-type peptide” value [30] was 149%. For the same binder, the “% of binding to wild-type peptide” value [31] was 0.69%, the “% of binding to wild-type peptide” value [32] was 118% and the “% of binding to wild-type peptide” value [33] was 47%. For the same binder, the “% of binding to wild-type peptide” value [34] was 93.6%, the “% of binding to wild-type peptide” value [35] was 59.2% and the “% of binding to wild-type peptide” value [36] was 83.9%. The “% of binding to wild-type peptide” value [37] was 16.3%, the “% of binding to wild-type peptide” value [38] was 52% and the “% of binding to wild-type peptide” value [39] was 87.3%.
